Data on five molecules can be found in patent US20190144541A1 (BEIJING DONGFANG BIOTECH, published 2019).

Sequences and labels used below:
B1: DFPD1-9 full-length anti-PD-1 monoclonal antibody (antibody, human IgG4 S228P, kappa, V domains shown)
VH: QVQLVESGGGVVQPGRSLRLDCKASGITFSNYGMHWVRQAPGKGLEWVAVIWYDSSRKYYADSVKGRFTISRDNSKNTLFLQMNSLRAEDTAVYYCATNNDYWGQGTLVTVSS
VL: DIQMTQSPSSLSASVGDRVTITCRASQSIHNYLDWYQQKPGKAPKLLIYNASTRATGVPSRFSGSGSGTDFTLTISSLQPEDFATYYCQQELHLPLTFGQGTKVEIKR
notes: Expressed in HEK293E cells and purified on protein A
B2: DFPD1-11 full-length anti-PD-1 monoclonal antibody (antibody, human IgG4 S228P, kappa, V domains shown)
VH: B1 VH with Y32N
VL: B1 VL
notes: as for B1
B3: DFPD1-12 full-length anti-PD-1 monoclonal antibody (antibody, human IgG4 S228P, kappa, V domains shown)
VH: B1 VH with S55G, R57K
VL: B1 VL
notes: as for B1
B4: DFPD1-13 full-length anti-PD-1 monoclonal antibody (antibody, human IgG4 S228P, kappa, V domains shown)
VH: B1 VH with Y32N
VL: B1 VL with I29V, H30S, N50D, E91N, L92M, H93Q
notes: as for B1
B5: DFPD1-10 full-length anti-PD-1 monoclonal antibody (antibody, human IgG4 S228P, kappa, V domains shown)
VH: B1 VH
VL: B1 VL with I29V, H30S, N50D, E91N, L92M, H93Q
notes: as for B1

Where a chain is given by its changes, count along the chain named.

T1 sequence (Q15116 25-167 limits assumed): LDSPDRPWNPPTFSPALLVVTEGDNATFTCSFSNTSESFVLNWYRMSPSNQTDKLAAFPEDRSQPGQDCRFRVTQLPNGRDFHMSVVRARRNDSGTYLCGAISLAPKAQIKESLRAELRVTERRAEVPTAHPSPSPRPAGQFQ

One assay concerns the target T1, PD-1 (analyte in the BIAcore X100 assay) (UniProt Q15116 25-167, limits assumed).
T1 construct: also called Programmed Cell Death 1
The experiment in a line: SPR, BIAcore X100, antibody captured by anti-human IgG on CM5 chip, PD-1 as analyte. On the procedure: The affinity of the antibodies were determined by ligand-capture method. Anti-human IgG was coupled to the surface of CM5 chip, and DFPD1-9, DFPD1-10, DFPD1-11, DFPD1-12 and DFPD1-13 were diluted respectively to ensure the capturing about 300 RU of the antibody by the anti-human IgG.
A word on the Kd: it is a measure of binding affinity in units of concentration. Read a high Kd as lower affinity. The term koff denotes the rate constant with which the complex falls apart. Read a high koff as a short-lived complex. What is called kon is the second-order rate constant of association. High values mean fast association, low ones slow association. As to B1, the Kd came to 6.43 nM, the koff amounted to 0.000105 s⁻¹ and the kon is 16300 M⁻¹ s⁻¹.

On to B2, for which binding was put at a Kd of 10.8 nM, the koff amounted to 0.000102 s⁻¹ and the kon was determined as 9360 M⁻¹ s⁻¹.

Take B3: the Kd came to 22.4 nM, the koff came to 0.000298 s⁻¹ and the kon is 13300 M⁻¹ s⁻¹.

For B4, binding was put at a Kd of 9.5 nM, the koff was 0.000108 s⁻¹ and the kon stood at 18100 M⁻¹ s⁻¹.

B5 displayed a dissociation constant (Kd) of 3.96 nM, a koff of 0.00013 s⁻¹ and a kon of 32800 M⁻¹ s⁻¹.

The target in another assay is T2, PD-1-His (UniProt Q15116 25-167, limits assumed).
T2 construct: also called antigen PD-1-His; not shown: His tag
T2 sequence (Q15116 25-167 limits assumed): as above
The experiment in a line: competition ELISA: antibody premixed with 4 ug/mL PD1-His, added to coated PDL1-Fc, bound PD1-His detected with anti-His-HRP. On the procedure: PDL1-Fc in pH9.6 carbonate buffer solution was used for coating plates at 4° C. for overnight. After washing five times with PBST, the wells were blocked for two hours with 1% BSA-PBS at 37° C. […] After incubating at 37° C. for one hour, the wells were washed five times with PBST, and then the mouse anti-His antibody HRP labeled with 1% BSA-PBS diluted were added. After incubating at 37° C. for one hour, the wells were stained with TMB stain solution kit, 100 μL/well, for 8 minutes at room temperature. The reaction was stopped with 50 µL of 10% H₂SO₄/well. The optical density was read at 450 nm and 630 nm wavelength. The result is shown in FIG. 16, DFPD1-9, DFPD1-10, DFPD1-11, DFPD1-12 and DFPD1-13 can inhibit the binding of PD-1 and PD-L1.
On the technique in general: In an ELISA, binding on a coated surface is turned into a signal by an enzyme label.
Take B1: the “IC50 (read off the curve)” value is roughly 0.1 µg/mL.

In the case of B2, the “IC50 (read off the curve)” value is roughly 0.07 µg/mL.

As for B3, the “IC50 (read off the curve)” value was roughly 0.05 µg/mL.

As for B4, the “IC50 (read off the curve)” value is roughly 0.08 µg/mL.

With B5, the “IC50 (read off the curve)” value was roughly 0.1 µg/mL.

Another assay deals with T3, PD-1 on PD1-CHO cells.
T3 construct: also called cell-surface PD-1
T3 sequence (chain, as listed by the source limits assumed): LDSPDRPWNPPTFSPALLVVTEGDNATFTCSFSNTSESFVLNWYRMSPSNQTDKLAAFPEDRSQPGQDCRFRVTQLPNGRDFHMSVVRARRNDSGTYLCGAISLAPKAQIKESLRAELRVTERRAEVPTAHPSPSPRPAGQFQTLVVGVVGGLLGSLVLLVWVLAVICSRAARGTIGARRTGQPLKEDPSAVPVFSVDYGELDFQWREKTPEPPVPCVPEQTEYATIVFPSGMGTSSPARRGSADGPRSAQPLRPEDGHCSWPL
The experiment in a line: cell ELISA on fixed PD1-CHO cells, anti-human Fc-HRP. On the procedure:
Firstly, the CHO cell line with stable PD-1 over-expression was made and named PD1-CHO. After coating 96-well plates with gelatin, PD1-CHO cells was digested by trypsin and then stopped. After centrifuging and suspending these cells, the cells were diluted to 2×10⁵ cells/mL, 100 μL per well in 96-well plates, totally 12 well×6 row, namely 2×10⁴ cells/well, and cultured at 5% CO₂, 37° C. overnight. The culture medium were discarded the next day, and the wells were washed one time with 350 μL precooling PBS. Freshly prepared 2% PFA was added to fix 5 minutes, and then PBS was used to wash two times.
The full-length anti-PD-1 antibody of double dilution was added into the cell plates, the diluent is PBS with 0.5% BSA. Sample concentration started from 100 μg/mL, diluting for 8 times, totally 12 gradients of dilution. After incubating for 30 minutes at room temperature, supernatant was discarded, and wells were washed three times with 350 μL pre-cooled PBS. The anti-human Fc-HRP Secondary antibodies diluted at 1:5000 were added, and incubated for 15 minutes at room temperature. After washing three times with 350 μL PBS, 100 μL TMB stain solution was added into each well, staining for 15 to 30 minutes at room temperature. After adding 50 μL2 mol/L H2504 per well to stop the staining, the optical density was read at 450 nm and 630 nm wavelength with the microplate reader.
As usually defined, the EC50 (read off the curve) is the concentration at which the effect is half-maximal. Consider B1, for which the “EC50 (read off the curve)” value was roughly 2 nM.

As to B2, the “EC50 (read off the curve)” value was roughly 4 nM.

As for B3, the “EC50 (read off the curve)” value is roughly 2 nM.

In the case of B4, the “EC50 (read off the curve)” value is roughly 2 nM.

With B5, the “EC50 (read off the curve)” value is roughly 0.9 nM.

Another assay addresses T2, PD-1-His. The experiment in a line: ELISA on coated PD-1-His (60 ng/well), anti-human Fc-HRP. On the procedure: After washing five times with 300 μl/well PBST, the wells were blocked for two hours with 1% BSA-PBS at 37° C. Different dilution of the antibodies DFPD1-9, DFPD1-10, DFPD1-11, DFPD1-12 and DFPD1-13 were added. The highest concentration of these five kinds of antibodies is 16 μg/mL, diluted for 4 times to 11 gradients, and the last well was used as the negative control which was added PBS diluent only. After incubating at 37° C. for one hour, the wells were washed five times with 300 μL/well of PBST, then adding the anti-human Fc-HRP secondary antibodies diluted at 1:40000 with 1% BSA-PBS, incubating at 37° C. for one hour. After staining with TMB stain solution kit, 100 μL/well, for 8 minutes at room temperature, the reaction was stopped with 50 µL of 2 mol/L H₂SO₄/well, and the optical density was determined at 450 nm and 630 nm wavelength.
Consider B1, for which the “EC50 (read off the curve)” value is roughly 0.006 µg/mL.

B2: the “EC50 (read off the curve)” value is roughly 0.006 µg/mL.

For B3, the “EC50 (read off the curve)” value is roughly 0.006 µg/mL.

For B4, the “EC50 (read off the curve)” value was roughly 0.008 µg/mL.

B5: the “EC50 (read off the curve)” value was roughly 0.007 µg/mL.
